Substitutions are numbered along the chain they refer to.

The term EC50 denotes the concentration at which the effect is half-maximal. Lower therefore signals a more potent agent.

B1: Ms14 (antibody, V domains shown)
VH: EVQLQQSGPELVKPGASVKMSCKASGYTFTRYIIHWVKQKPGQGLEWIGYFNPYNDDSKNNEKFKGKATLTSDKSSSTAYMEISSLTSEDSAVYYCAKLRQERIAYWGQGTLVTVSA
VL: DIQMNQSPSSLSASLGDTITITCHVSQNIDVWLSWYQQKPGNIPKLLIYKASNLHTGVPSRFSGSGSGTGFTLTISSLQPEDIATYYCQQGQSYPLTFGAGTKLELK
B2: Ms16 (antibody, V domains shown)
VH: QVQLQQSGAELVRPGTSVKVSCKASGYAFTNYLIEWIKQRPGQGLEWIGVINPGSGGTNYNEKLKGKATLTADKSSSTAYMQLSSLTSGDSAVYFCARYVKGNALDYWGQGTSVTVSS
VL: DIVMTQSPSSLTVTAGEKVTLSCKSSQSLFNSGNQKNYLTWYQQKPGQPPKLLIYWASTRESGVPDRFTGSGSGTDFTLTISSVQAEDLAIYYCQNSYSFPLTFGAGTKLELT
B3: Hu-4 (antibody, V domains shown)
VH: QVQLVESGGGVVQPGRSLRLSCAASGFTFSFYGMHWVRQAPGKGLEWVAVIWYDGSNKNYVDSVKGRFTISRDNSKNTLYLQMNSLRAEDTAVYYCARRNYDILTGRDYYGMDVWGQGTTVTVSS
VL: QTVVTQEPSFSVSPGGTVTLTCGLNSGSVSTSYYPSWYQQTPGQAPRTLIYSTNTRSSGVPDRFSGSILGNKAALTITGAQADDDSDYYCVLYMGSGIWVFGGGTKLTVL
B4: Ms11 (antibody, V domains shown)
VH: QVQLQQSGAELVKPGASVKMSCKAFGYTFTTYSIEWMKQNHGKSLEWIGNFRPYNDDTKCNEKFKGKAKLTVEKSSSTVYLELSRLTSDDSAVYYCARGSYGNSFAYWGQGTLVTVSA
VL: DIVMTQSPSSLSVSAGEKVTMSCKSSQSLLNSGNQKNYLAWYQQKPGQPPKLLIYGASTRESGVPDRFTGSGSGTDFTLTISSVQAEDLAVYYCQNDHSYPFTFGSGTKLEIK
B5: Hu-10 (antibody, V domains shown)
VH: EVQLSESGGALVQPGESLRLSCAASGFTFSSYAMTWVRQAPGKGLEWVSSLSGSGRSTYYAASIKGRFTISRDNSKNTLYLQMSSLRAEDTAIYYCAKSLSYYHYYFDYWGQGTLVTVSS
VL: DIQLTQSPSFLSASVGDRVPITCRASQDISNYLAWYQQKPGKAPKLLIYSASTLQSGVPSRFSGSGSGTEFTLTISSLQPEDFASYHCQQVKTYPLTFGGGTKVEIK
B6: Hu-9 (antibody, V domains shown)
VH: B5 VH with S5L, A10G, E16G, Y32F, I64M, S84N, S119T
VL: B5 VL with D28G, Y32F, K45E, Y49H, S77N, E81Q, S85T, H87Y, K92N, T93S
B7: Hu-7 (antibody, V domains shown)
VH: EVQLLESGGGLVQPGGSLRLSCAASGFTFSSYVMSWVRQAPGKGLEWVSTISGSGGSTYYADSVKDRFTISRDNSKNTLYLQMNSLRAEDTAVYYCGKPLLGGTGLWDYWGQGTLVTVSS
VL: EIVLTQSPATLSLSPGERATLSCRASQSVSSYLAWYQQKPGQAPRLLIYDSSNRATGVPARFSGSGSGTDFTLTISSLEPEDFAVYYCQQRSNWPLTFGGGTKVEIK
B8: Hu-2 (antibody, V domains shown)
VH: QLRLQESGPGLVKPSETLSLTCAVSGGSISSSRSYWGWIRQPPGKGLELIGSIYYSGSTYYNPSLKSRVTISVDTSKNQFSLKLTSVTATDTAVYYCARQTLRYFDWLSPFDYWGQGTLVTVSS
VL: EIVMTQSPATLSLSPGERATLSCRASQSVRSNYLSWYQQKPGQAPRLLIYGTSTRATGIPARFSGSGSGTDFTLTISSLQPEDFAVYFCQQDYNLPITFGQGTRLEIK
B9: Hu-6 (antibody, V domains shown)
VH: QMQLRESGPGLVKPSETLSLTCTVSNGPISSSRYYWGWIRQPPGKGLEWIGSFHYSGSTYYKPSLKSRVTISADTSKNQLSLELSSVTAADTAVYYCARLVLRYFDWLGYFDLWGRGTLVTVSS
VL: B8 VL with I2F, V29I, T52A, G58A, F88Y
B10: Hu-12 (antibody, V domains shown)
VH: EVRLLESGGGLVQPGGSLRLSCIASGFTFSSYVMSWVRQAPGKGLEWVSGISGSGGSTYYADSVKGRFTISRDNSKNTLYLQISSLRAEDTAVYYCTKAPTLWWFFDLWGRGTLVTVSS
VL: DIQVTQSPSFLSASVGDRVTITCRASQGIRSYLAWYQQKPGKAPKLLIYAASTLQSGVPSRFSGSGSGTEFTLTISSLLPEDFATYYCQQLNSYPLTFGGGTKVEIK
B11: Hu-17 (antibody, V domains shown)
VH: QVQLVQSGAEVKRPGASVKVSCRVSGYTLTALSMYWVRQAPGKGLEWMGGFDPEDGETIYAQKFQGRVTMTEDTSTGTAYMELSSLKSEDTAVYYCATRLRYFDWNYWGQGTPVTVSS
VL: DIVMTQTPLSSPVTLGQPASISCRSSQSLVHSDGNTYLSWLQQRPGQPPRLLIYKVSKRFSGVPDRFSGSGAGTDFTLKISRVEAEDVGVYYCTQGTQFPRTFGQGTKVEIK
notes: Human V regions (Trianni mice)

The target of the first assay is T1, human claudin 18 isoform 1 (claudin 18.1) (human, UniProt P56856 1-261).
T1 construct: Recombinant on transfected CHO cells (CHO-CLDN18.1); also called CLDN18.1
T1 sequence (P56856 whole entry, canonical isoform): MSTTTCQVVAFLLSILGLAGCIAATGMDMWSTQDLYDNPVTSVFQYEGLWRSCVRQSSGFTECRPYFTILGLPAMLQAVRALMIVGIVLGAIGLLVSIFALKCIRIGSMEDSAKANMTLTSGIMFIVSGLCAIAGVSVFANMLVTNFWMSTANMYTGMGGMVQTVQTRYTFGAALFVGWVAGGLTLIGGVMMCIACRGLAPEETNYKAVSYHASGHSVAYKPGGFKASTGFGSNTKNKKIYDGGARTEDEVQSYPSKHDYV
As to the kind of experiment: imaging, CHO-CLDN18.1 cells, single concentration (FIG. 3A). As to the method:
(§1) The specific cellular binding affinity of anti-Claudin18.2 antibodies was tested on CHO-CLDN18.2 (transfected CHO cell expressing recombinant human CLDN18.2) and CHO-CLDN18.1 (transfected CHO cell expressing recombinant human CLDN18.1) cells. The cells were plated in complete media containing F12 with 10% FBS, then incubated overnight at 37° C., anti-Claudin18.2 antibodies were serial diluted and added to the assay plates, incubated at 4° C. for 2 hours, followed by fixing cells and further staining the cells for 30 minutes with Alexa Fluor® 488 Goat Anti-Human IgG (H+L) secondary antibody, invitrogen Cat #A-11013 for detection. The binding was assessed by imaging the cells and quantifying the fluorescence intensity using a Biotek Cytation.
For the molecule B1, the binding result is recorded as “no binding (tested: 10 µg/ml)”.

For B2, the binding result is listed as “no binding (tested: 10 µg/ml)”.

In the next assay the target is T2, human claudin 18 isoform 2 (claudin 18.2) (human).
T2 construct: Recombinant on transfected CHO cells (CHO-CLDN18.2) or endogenous on tumor cell lines PATU8988S, NUGC-4, KATOIII; the cell line is named under assay; also called CLDN18.2
In words: imaging, PATU8988S cells (endogenous CLDN18.2); ++ = EC50 between 20 nM and 100 nM. How it is done: (§2) Tumor cells were plated in complete media containing RPMI1640 with +10% FBS, then incubated overnight at 37° C., Claudin18.2 antibodies were serial diluted and added to the assay plates, incubated at 4° C. for 2 hours, followed by fixing cells and further staining the cells for 30 minutes with Alexa Fluor® 488 Goat Anti-Human IgG (H+L) secondary antibody (invitrogen Cat #A-11013) for detection. The binding was assessed by imaging the cells and quantifying the fluorescence intensity using a Biotek Cytation.
For the molecule B3, the EC50 was in the range of 20 to 100 nM.

For another assay, the target named is T2, human claudin 18 isoform 2 (claudin …). As to the kind of experiment: cell-based or functional assay.
In the case of B1, the “endocytosis derived cell toxicity EC50, CHO-18.2 cells (anti-IgG Fc-MMAF co-internalization)” value (“endocytosis derived cell toxicity EC50” below) came out at 1.02 nM.

As for B2, the “endocytosis derived cell toxicity EC50” value came to 1 nM.

For B4, the “endocytosis derived cell toxicity EC50” value is 1.3 nM.

For the next assay the target is unchanged. In words: imaging, PATU8988S cells (endogenous CLDN18.2); ++++ = EC50 less than 2 nM.
Regarding B2, the EC50 is under 2 nM.

For another assay the target is unchanged. In words: imaging, PATU8988S cells (endogenous CLDN18.2); ++ = EC50 between 20 nM and 100 nM. This is another data set of the same source.
Molecule B1 came in with an EC50 of 20 to 100 nM.

In turn, B4 had an EC50 of 20 to 100 nM.

The next assay shares this target. In words: cell-based or functional assay. The source holds these as a separate data set.
For the molecule B3, the “ADCC EC50, CHO-18.2 target cells (mouse FcγRIV reporter bioluminescence)” value (“ADCC EC50, CHO-18.2 target cells” for short) was found to be 2.39 nM.

In the case of B5, the “ADCC EC50, CHO-18.2 target cells” value is 1.25 nM.

In the case of B6, the “ADCC EC50, CHO-18.2 target cells” value was found to be 1.1 nM.

For the molecule B7, the “ADCC EC50, CHO-18.2 target cells” value was 3.52 nM.

B8: the “ADCC EC50, CHO-18.2 target cells” value is 3.51 nM.

In the case of B9, the “ADCC EC50, CHO-18.2 target cells” value amounted to 4.8 nM.

B10: the “ADCC EC50, CHO-18.2 target cells” value stood at 2.26 nM.

The target is the same in the next assay. As to the kind of experiment: imaging, PATU8988S cells (endogenous CLDN18.2); ++++ = EC50 less than 2 nM. The source holds these as a separate data set. How it is done:
as §2
For B5, the EC50 is under 2 nM.

Consider B6, for which the EC50 is under 2 nM.

B7: the EC50 is under 2 nM.

Molecule B10 registered an EC50 of under 2 nM.

A further assay shares this target. In words: imaging, PATU8988S cells (endogenous CLDN18.2); +++ = EC50 between 2 nM and 20 nM. How it is done: as §2
In the case of B8, the concentration giving a half-maximal response (EC50) was in the range of 2 to 20 nM.

Molecule B9 gave an EC50 of 2 to 20 nM.

The target in a further assay is T1, human claudin 18 isoform 1 (claudin …). In words: imaging, CHO-CLDN18.1 cells, dose titration. As to the method: as §1
For the molecule B11, the binding result is listed as “no binding (tested: 133.4 nM)”.

In the next assay the target is T2, human claudin 18 isoform 2 (claudin …). As to the kind of experiment: immunofluorescence imaging, CHO-CLDN18.2 cells, serial dilution. How it is done: as §1
For the molecule B3, the EC50 stood at 5.2 nM.

B5 had an EC50 of 1.5 nM.

The molecule B6 yielded a concentration giving a half-maximal response (EC50) of 1.1 nM.

Take B7: the EC50 stood at 1 nM.

Molecule B1 gave an EC50 of 1.1 nM.

Molecule B2 returned an EC50 of 0.8 nM.

In turn, B8 registered an EC50 of 1.5 nM.

B9 returned an EC50 of 1.5 nM.

As for B4, a half-maximal effect (EC50) was put at 3.3 nM.

Take B10: the EC50 was 1.2 nM.

B11 returned an EC50 of 6.2 nM.

The target is the same in a further assay. As to the kind of experiment: cell-based or functional assay. This is another data set of the same source.
As to B3, the “endocytosis derived cell toxicity EC50” value is 1.55 nM.

B5: the “endocytosis derived cell toxicity EC50” value is 0.85 nM.

Regarding B6, the “endocytosis derived cell toxicity EC50” value stood at 0.85 nM.

B7: the “endocytosis derived cell toxicity EC50” value amounted to 1.65 nM.

On to B8, for which the “endocytosis derived cell toxicity EC50” value is 1.43 nM.

Take B9: the “endocytosis derived cell toxicity EC50” value came to 1.69 nM.

Take B10: the “endocytosis derived cell toxicity EC50” value worked out at 2.01 nM.

The next assay addresses T1, human claudin 18 isoform 1 (claudin …). As to the kind of experiment: immunofluorescence imaging on CHO cells expressing human CLDN18.1, antibody at 10 µg/ml. As to the method:
as §1
On to B3, for which the binding result was “no binding (tested: 10 µg/ml)”.

Take B5: the binding result is reported as “no binding (tested: 10 µg/ml)”.

For B6, the binding result is “no binding (tested: 10 µg/ml)”.

As for B7, the binding result is recorded as “no binding (tested: 10 µg/ml)”.

As for B8, the binding result is reported as “no binding (tested: 10 µg/ml)”.

As for B4, the binding result is given as “no binding (tested: 10 µg/ml)”.

As to B10, the binding result is listed as “no binding (tested: 10 µg/ml)”.

Source of the values: patent publication US20230067757A1 (NOVAROCK BIOTHERAPEUTICS, published 2023).
